B1: Pf12 D1D2 (residues 28-304), untagged [Plasmodium falciparum] / octa-histidine tagged Pf41 D1D2 (residues 21-368) [Plasmodium falciparum] (parent complex)
chain 1: NLTCDFNDVYKLEFHPNQQTSVTKLCNLTPNVLEKVTIKCGSDKLNYNLYPPTCFEEVYASRNMMHLKKIKEFVIGSSMFMRRSLTPNKINEVSFRIPPNMMPEKPIYCFCENKKTITINGSNGNPSSKKDIINRGIVEIIIPSLNEKVKGCDFTTSESTIFSKGYSINEISNKSSNNQQDIVCTVKAHANDLIGFKCPSNYSVEPHDCFVSAFNLSGKNENLENKLKLTNIIMDHYNNTFYSRLPSLISDNWKFFCVCSKDNEKKLVFTVEASISS
chain 2: KSHKCDFTKEKYLLSGEKEVSCEIDANPSDDITFICPNKIDSLCFHTVNISKNINQNKSTMSIQDLLYGSVVYGNTLFISPYVRTNTPFYCFCNLDTVTIQKFLKINRFLKDDDELSEADVMKHLKGGNVSEAQADEYLNKALNRFKKMKDLSKFFNDQADNTTKLNLPKSLNIPNDILNYDVYNSSNNRNDIVVKDEVTNKQIISKRGIMSVFVRSNNNVIKGCDFGNNNKNYFSHPISVAGKVNNKVCKIQGKPGELVGFKCAFEENGKVEPPNCFDQVLHKNKVTDLKTLIPGYASYTNKHSSKYPYYLKIPHFVNEQYTIQCKCKSNNSQNEYTFELDIQPGES
B2: Pf41 D1D2 (residues 21-368), untagged [Plasmodium falciparum] / octa-histidine tagged Pf12 D1D2 (residues 28-304) [Plasmodium falciparum] (parent complex)
chain 1: B1 chain 2
chain 2: B1 chain 1

Variants of B1 are the subject of one experiment. Kind of experiment: BLI; mutant at 1000 nM, 500 nM, and 250 nM; binding to immobilised WT Pf41; parent: 100; read off a plot.
For the variant chain 1 F256A, the percent of parent was about 4 % WT.

As for chain 1 M81A, the percent of parent was about 22 % WT.

In the case of chain 1 R82E, the percent of parent was about 0 % WT.

Regarding chain 1 R82A, the percent of parent was about 9 % WT.

chain 1 R83A: the percent of parent is about 38 % WT.

Take chain 1 M79A: the percent of parent is about 27 % WT.

chain 1 H207A: the percent of parent is about 116 % WT.

Regarding chain 1 F214A, the percent of parent is about 12 % WT.

For chain 1 F214L, the percent of parent was about 67 % WT.

With chain 1 R96A, the percent of parent was about 55 % WT.

As to chain 1 R96E, the percent of parent is about 3 % WT.

For chain 1 Y237A, the percent of parent is about 2 % WT.

In another experiment the parent is B2. Description: BLI; mutant at 1000 nM, 500 nM, and 250 nM; binding to immobilised WT Pf12; parent: 100; read off a plot. Background: BLI is a label-free optical method that tracks binding on a fibre tip over time.
Take chain 1 L143A: the percent of parent is about 1 % WT.

As to chain 1 E347A, the percent of parent is about 18 % WT.

On to chain 1 H316A, for which the percent of parent is about 75 % WT.

As for chain 1 L139A, the percent of parent is about 4 % WT.

Regarding chain 1 E320A, the percent of parent is about 103 % WT.

Consider chain 1 F146L, for which the percent of parent is about 122 % WT.

In the case of chain 1 F146A, the percent of parent is about 37 % WT.

Take chain 1 F317A: the percent of parent was about 1 % WT.

On to chain 1 N319A, for which the percent of parent was about 36 % WT.
